Assay results taken from the supplement of paper PMC5998384.

How the values were obtained:
HeLa Kyoto [1] = assay: thermal stability score vs G1/S (z-score of summed log2 fold changes over temperatures); higher = more thermally stable than in G1/S
HeLa Kyoto [2] = assay: solubility change mitosis vs G1/S (difference of NP-40 vs SDS log2 ratios) (log2 ratio difference); higher = more soluble in mitosis
HeLa Kyoto [3] = assay: melting temperature (median over replicates), in situ; higher = more thermally stable
HeLa Kyoto [4] = assay: solubility in G1/S (NP-40 vs SDS abundance) (log2 ratio); higher = more soluble; conditions: cell cycle stage: G1/S
[5] = cell cycle stage: early G1 (4.5 h after nocodazole release)
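For melting temperature (median over replicates), in situ in this document: HeLa Kyoto cells synchronized by double thymidine or nocodazole block, proteins quantified by TMT10plex mass spectrometry, three independent biological replicates.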
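For solubility change mitosis vs G1/S (difference of NP-40 vs SDS log2 ratios) in this document: synchronized HeLa Kyoto cells (double thymidine block for G1/S, nocodazole release for mitosis), protein amounts in NP-40 versus SDS lysates quantified by mass spectrometry, three biological replicates.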
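For solubility in G1/S (NP-40 vs SDS abundance) in this document: HeLa Kyoto cells arrested at G1/S by double thymidine block, proteins quantified by TMT10plex mass spectrometry in mild NP-40 versus SDS extracts, three biological replicates.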
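For thermal stability score vs G1/S (z-score of summed log2 fold changes over temperatures) in this document: synchronized HeLa Kyoto cells, proteins quantified by TMT10plex mass spectrometry, three biological replicates, mitosis taken 0.5 h after nocodazole release, G1/S directly after double thymidine block.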

Sequence | thermal stability score (HeLa Kyoto [1]; [5]) | thermal stability score (HeLa Kyoto [1]; cell cycle stage: mitosis) | solubility change mitosis (log2) (HeLa Kyoto [2]) | melting temperature (HeLa Kyoto [3]; cell cycle stage: mitosis) | solubility in G1/S (log2) (HeLa Kyoto [4]) | melting temperature (HeLa Kyoto [3]; cell cycle stage: G1/S)
MDRSSKRRQVKPLAASLLEALDYDSSDDSDFKVGDASDSEGSGNGSEDASKDSGEGSCSDSEENILEEELNEDIKVKEEQLKNSAEEEVLSSEKQLIKMEKKEEEENGERPRKKKEKEKEKEKEKEKEKEREKEKEKATVSENVAASAAATTPATSPPAVNTSPSVPTTTTATEEQVSEPKKWNLRRNRPLLDFVSMEELNDMDDYDSEDDNDWRPTVVKRKGRSASQKEGSDGDNEDDEDEGSGSDEDENDEGNDEDHSSPASEGGCKKKKSKVLSRNSADDEELTNDSLTLSQSKSNEDSLILEKSQNWSSQKMDHILICCVCLGDNSEDADEIIQCDNCGITVHEGCYGVDGESDSIMSSASENSTEPWFCDACKCGVSPSCELCPNQDGIFKETDAGRWVHIVCALYVPGVAFGDIDKLRPVTLTEMNYSKYGAKECSFCEDPRFARTGVCISCDAGMCRAYFHVTCAQKEGLLSEAAAEEDIADPFFAYCKQHADRLDRKWKRKNYLALQSYCKMSLQEREKQLSPEAQARINARLQQYRAKAELARSTRPQAWVPREKLPRPLTSSASAIRKLMRKAELMGISTDIFPVDNSDTSSSVDGRRKHKQPALTADFVNYYFERNMRMIQIQENMAEQKNIKDKLENEQEKLHVEYNKLCESLEELQNLNGKLRSEGQGIWALLGRITGQKLNIPAILRAPKERKPSKKEGGTQKTSTLPAVLYSCGICKKNHDQHLLLLCDTCKLHYHLGCLDPPLTRMPRKTKNSYWQCSECDQAGSSDMEADMAMETLPDGTKRSRRQIKEPVKFVPQDVPPEPKKIPIRNTRTRGRKRSFVPEEEKHEERVPRERRQRQSVLQKKPKAEDLRTECATCKGTGDNENLVRCDECRLCYHFGCLDPPLKKSPKQTGYGWICQECDSSSSKEDENEAERKNISQELNMEQKNPKK [PHF14] | -0.0393 | 2.42 | 0.708 | 50.1 °C | -1.13 | 
MGEKSENCGVPEDLLNGLKVTDTQEAECAGPPVPDPKNQHSQSKLLRDDEAHLQEDQGEEECFHDCSASFEEEPGADKVENKSNEDVNSSELDEEYLIELEKNMSDEEKQKRREESTRLKEEGNEQFKKGDYIEAESSYSRALEMCPSCFQKERSILFSNRAAARMKQDKKEMAINDCSKAIQLNPSYIRAILRRAELYEKTDKLDEALEDYKSILEKDPSIHQAREACMRLPKQIEERNERLKEEMLGKLKDLGNLVLRPFGLSTENFQIKQDSSTGSYSINFVQNPNNNR [TTC1] | -3 | -2.41 | 0.183 | 56.4 °C | 0.455 | 56.2 °C
MVLNSLDKMIQLQKNTANIRNICVLAHVDHGKTTLADCLISSNGIISSRLAGKLRYMDSREDEQIRGITMKSSAISLHYATGNEEYLINLIDSPGHVDFSSEVSTAVRICDGCIIVVDAVEGVCPQTQAVLRQAWLENIRPVLVINKIDRLIVELKFTPQEAYSHLKNILEQINALTGTLFTSKVLEERAERETESQVNPNSEQGEQVYDWSTGLEDTDDSHLYFSPEQGNVVFTSAIDGWGFGIEHFARIYSQKIGIKKEVLMKTLWGDYYINMKAKKIMKGDQAKGKKPLFVQLILENIWSLYDAVLKKDKDKIDKIVTSLGLKIGAREARHSDPKVQINAICSQWLPISHAVLAMVCQKLPSPLDITAERVERLMCTGSQTFDSFPPETQALKAAFMKCGSEDTAPVIIFVSKMFAVDAKALPQNKPRPLTQEEIAQRRERARQRHAEKLAAAQGQAPLEPTQDGSAIETCPKGEEPRGDEQQVESMTPKPVLQEENNQESFIAFARVFSGVARRGKKIFVLGPKYSPLEFLRRVPLGFSAPPDGLPQVPHMAYCALENLYLLMGRELEYLEEVPPGNVLGIGGLQDFVLKSATLCSLPSCPPFIPLNFEATPIVRVAVEPKHPSEMPQLVKGMKLLNQADPCVQILIQETGEHVLVTAGEVHLQRCLDDLKERFAKIHISVSEPIIPFRETITKPPKVDMVNEEIGKQQKVAVIHQMKEDQSKIPEGIQVDSDGLITITTPNKLATLSVRAMPLPEEVTQILEENSDLIRSMEQLTSSLNEGENTHMIHQKTQEKIWEFKGKLEQHLTGRRWRNIVDQIWSFGPRKCGPNILVNKSEDFQNSVWTGPADKASKEASRYRDLGNSIVSGFQLATLSGPMCEEPLMGVCFVLEKWDLSKFEEQGASDLAKEGQEENETCSGGNENQELQDGCSEAFEKRTSQKGESPLTDCYGPFSGQLIATMKEACRYALQVKPQRLMAAMYTCDIMATGDVLGRVYAVLSKREGRVLQEEMKEGTDMFIIKAVLPVAESFGFADEIRKRTSGLASPQLVFSHWEIIPSDPFWVPTTEEEYLHFGEKADSENQARKYMNAVRKRKGLYVEEKIVEHAEKQRTLSKNK [EFTUD1] | 0.0185 | -0.212 | -0.154 | 50 °C | -0.156 | 50.3 °C
MSSGKSARYNRFSGGPSNLPTPDVTTGTRMETTFGPAFSAVTTITKADGTSTYKQHCRTPSSSSTLAYSPRDEEDSMPPISTPRRSDSAISVRSLHSESSMSLRSTFSLPEEEEEPEPLVFAEQPSVKLCCQLCCSVFKDPVITTCGHTFCRRCALKSEKCPVDNVKLTVVVNNIAVAEQIGELFIHCRHGCRVAGSGKPPIFEVDPRGCPFTIKLSARKDHEGSCDYRPVRCPNNPSCPPLLRMNLEAHLKECEHIKCPHSKYGCTFIGNQDTYETHLETCRFEGLKEFLQQTDDRFHEMHVALAQKDQEIAFLRSMLGKLSEKIDQLEKSLELKFDVLDENQSKLSEDLMEFRRDASMLNDELSHINARLNMGILGSYDPQQIFKCKGTFVGHQGPVWCLCVYSMGDLLFSGSSDKTIKVWDTCTTYKCQKTLEGHDGIVLALCIQGCKLYSGSADCTIIVWDIQNLQKVNTIRAHDNPVCTLVSSHNVLFSGSLKAIKVWDIVGTELKLKKELTGLNHWVRALVAAQSYLYSGSYQTIKIWDIRTLDCIHVLQTSGGSVYSIAVTNHHIVCGTYENLIHVWDIESKEQVRTLTGHVGTVYALAVISTPDQTKVFSASYDRSLRVWSMDNMICTQTLLRHQGSVTALAVSRGRLFSGAVDSTVKVWTC [TRAF7] | -0.465 | 0.328 | -0.0251 |  | -0.171 | 50.5 °C
MVCGGFACSKNCLCALNLLYTLVSLLLIGIAAWGIGFGLISSLRVVGVVIAVGIFLFLIALVGLIGAVKHHQVLLFFYMIILLLVFIVQFSVSCACLALNQEQQGQLLEVGWNNTASARNDIQRNLNCCGFRSVNPNDTCLASCVKSDHSCSPCAPIIGEYAGEVLRFVGGIGLFFSFTEILGVWLTYRYRNQKDPRANPSAFL [TSPAN13] | -0.55 | -1.07 | -0.273 | 57.6 °C | 0.0697 | 57.7 °C
MASGAGGVGGGGGGKIRTRRCHQGPIKPYQQGRQQHQGILSRVTESVKNIVPGWLQRYFNKNEDVCSCSTDTSEVPRWPENKEDHLVYADEESSNITDGRITPEPAVSNTEEPSTTSTASNYPDVLTRPSLHRSHLNFSMLESPALHCQPSTSSAFPIGSSGFSLVKEIKDSTSQHDDDNISTTSGFSSRASDKDITVSKNTSLPPLWSPEAERSHSLSQHTATSSKKPAFNLSAFGTLSPSLGNSSILKTSQLGDSPFYPGKTTYGGAAAAVRQSKLRNTPYQAPVRRQMKAKQLSAQSYGVTSSTARRILQSLEKMSSPLADAKRIPSIVSSPLNSPLDRSGIDITDFQAKREKVDSQYPPVQRLMTPKPVSIATNRSVYFKPSLTPSGEFRKTNQRIDNKCSTGYEKNMTPGQNREQRESGFSYPNFSLPAANGLSSGVGGGGGKMRRERTRFVASKPLEEEEMEVPVLPKISLPITSSSLPTFNFSSPEITTSSPSPINSSQALTNKVQMTSPSSTGSPMFKFSSPIVKSTEANVLPPSSIGFTFSVPVAKTAELSGSSSTLEPIISSSAHHVTTVNSTNCKKTPPEDCEGPFRPAEILKEGSVLDILKSPGFASPKIDSVAAQPTATSPVVYTRPAISSFSSSGIGFGESLKAGSSWQCDTCLLQNKVTDNKCIACQAAKLSPRDTAKQTGIETPNKSGKTTLSASGTGFGDKFKPVIGTWDCDTCLVQNKPEAIKCVACETPKPGTCVKRALTLTVVSESAETMTASSSSCTVTTGTLGFGDKFKRPIGSWECSVCCVSNNAEDNKCVSCMSEKPGSSVPASSSSTVPVSLPSGGSLGLEKFKKPEGSWDCELCLVQNKADSTKCLACESAKPGTKSGFKGFDTSSSSSNSAASSSFKFGVSSSSSGPSQTLTSTGNFKFGDQGGFKIGVSSDSGSINPMSEGFKFSKPIGDFKFGVSSESKPEEVKKDSKNDNFKFGLSSGLSNPVSLTPFQFGVSNLGQEEKKEELPKSSSAGFSFGTGVINSTPAPANTIVTSENKSSFNLGTIETKSASVAPFTCKTSEAKKEEMPATKGGFSFGNVEPASLPSASVFVLGRTEEKQQEPVTSTSLVFGKKADNEEPKCQPVFSFGNSEQTKDENSSKSTFSFSMTKPSEKESEQPAKATFAFGAQTSTTADQGAAKPVFSFLNNSSSSSSTPATSAGGGIFGSSTSSSNPPVATFVFGQSSNPVSSSAFGNTAESSTSQSLLFSQDSKLATTSSTGTAVTPFVFGPGASSNNTTTSGFGFGATTTSSSAGSSFVFGTGPSAPSASPAFGANQTPTFGQSQGASQPNPPGFGSISSSTALFPTGSQPAPPTFGTVSSSSQPPVFGQQPSQSAFGSGTTPNSSSAFQFGSSTTNFNFTNNSPSGVFTFGANSSTPAASAQPSGSGGFPFNQSPAAFTVGSNGKNVFSSSGTSFSGRKIKTAVRRRK [NUP153] | -5.41 | -3.58 | 0.507 | 52.6 °C | -0.682 | 52.8 °C
MNNQKQQKPTLSGQRFKTRKRDEKERFDPTQFQDCIIQGLTETGTDLEAVAKFLDASGAKLDYRRYAETLFDILVAGGMLAPGGTLADDMMRTDVCVFAAQEDLETMQAFAQVFNKLIRRYKYLEKGFEDEVKKLLLFLKGFSESERNKLAMLTGVLLANGTLNASILNSLYNENLVKEGVSAAFAVKLFKSWINEKDINAVAASLRKVSMDNRLMELFPANKQSVEHFTKYFTEAGLKELSEYVRNQQTIGARKELQKELQEQMSRGDPFKDIILYVKEEMKKNNIPEPVVIGIVWSSVMSTVEWNKKEELVAEQAIKHLKQYSPLLAAFTTQGQSELTLLLKIQEYCYDNIHFMKAFQKIVVLFYKAEVLSEEPILKWYKDAHVAKGKSVFLEQMKKFVEWLKNAEEESESEAEEGD [BZW1] | 2.93 | 6.17 | -0.105 | 48.8 °C | 0.625 | 49.3 °C
MDVNIAPLRAWDDFFPGSDRFARPDFRDISKWNNRVVSNLLYYQTNYLVVAAMMISIVGFLSPFNMILGGIVVVLVFTGFVWAAHNKDVLRRMKKRYPTTFVMVVMLASYFLISMFGGVMVFVFGITFPLLLMFIHASLRLRNLKNKLENKMEGIGLKRTPMGIVLDALEQQEEGINRLTDYISKVKE [ARL6IP5] | 0.94 | 0.797 | -0.126 | 57.5 °C | -0.0879 | 56.4 °C
MAELGAGGDGHRGGDGAVRSETAPDSYKVQDKKNASSRPASAISGQNNNHSGNKPDPPPVLRVDDRQRLARERREEREKQLAAREIVWLEREERARQHYEKHLEERKKRLEEQRQKEERRRAAVEEKRRQRLEEDKERHEAVVRRTMERSQKPKQKHNRWSWGGSLHGSPSIHSADPDRRSVSTMNLSKYVDPVISKRLSSSSATLLNSPDRARRLQLSPWESSVVNRLLTPTHSFLARSKSTAALSGEAASCSPIIMPYKAAHSRNSMDRPKLFVTPPEGSSRRRIIHGTASYKKERERENVLFLTSGTRRAVSPSNPKARQPARSRLWLPSKSLPHLPGTPRPTSSLPPGSVKAAPAQVRPPSPGNIRPVKREVKVEPEKKDPEKEPQKVANEPSLKGRAPLVKVEEATVEERTPAEPEVGPAAPAMAPAPASAPAPASAPAPAPVPTPAMVSAPSSTVNASASVKTSAGTTDPEEATRLLAEKRRLAREQREKEERERREQEELERQKREELAQRVAEERTTRREEESRRLEAEQAREKEEQLQRQAEERALREREEAERAQRQKEEEARVREEAERVRQEREKHFQREEQERLERKKRLEEIMKRTRRTEATDKKTSDQRNGDIAKGALTGGTEVSALPCTTNAPGNGKPVGSPHVVTSHQSKVTVESTPDLEKQPNENGVSVQNENFEEIINLPIGSKPSRLDVTNSESPEIPLNPILAFDDEGTLGPLPQVDGVQTQQTAEVI [MAP7] | -5.44 | -8.57 | 0.704 | 52.1 °C | -0.661 | 54.3 °C
